B1: AH receptor-interacting protein (Homo sapiens), O00170 (parent)
chain: MADIIARLREDGIQKRVIQEGRGELPDFQDGTKATFHYRTLHSDDEGTVLDDSRARGKPMELIIGKKFKLPVWETIVCTMREGEIAQFLCDIKHVVLYPLVAKSLRNIAVGKDPLEGQRHCCGVAQMREHSSLGHADLDALQQNPQPLIFHMEMLKVESPGTYQQDPWAMTDEEKAKAVPLIHQEGNRLYREGHVKEAAAKYYDAIACLKNLQMKEQPGSPEWIQLDQQITPLLLNYCQCKLVVEEYYEVLDHCSSILNKYDDNVKAYFKRGKAHAAVWNAQEAQADFAKVLELDPALAPVVSRELRALEARIRQKDEEDKARFRGIFSH

Variants of: B1
Conditions: with hs90b_human HSP90AB1, P08238
hs90b_human HSP90AB1, P08238, sequence (P08238 whole entry): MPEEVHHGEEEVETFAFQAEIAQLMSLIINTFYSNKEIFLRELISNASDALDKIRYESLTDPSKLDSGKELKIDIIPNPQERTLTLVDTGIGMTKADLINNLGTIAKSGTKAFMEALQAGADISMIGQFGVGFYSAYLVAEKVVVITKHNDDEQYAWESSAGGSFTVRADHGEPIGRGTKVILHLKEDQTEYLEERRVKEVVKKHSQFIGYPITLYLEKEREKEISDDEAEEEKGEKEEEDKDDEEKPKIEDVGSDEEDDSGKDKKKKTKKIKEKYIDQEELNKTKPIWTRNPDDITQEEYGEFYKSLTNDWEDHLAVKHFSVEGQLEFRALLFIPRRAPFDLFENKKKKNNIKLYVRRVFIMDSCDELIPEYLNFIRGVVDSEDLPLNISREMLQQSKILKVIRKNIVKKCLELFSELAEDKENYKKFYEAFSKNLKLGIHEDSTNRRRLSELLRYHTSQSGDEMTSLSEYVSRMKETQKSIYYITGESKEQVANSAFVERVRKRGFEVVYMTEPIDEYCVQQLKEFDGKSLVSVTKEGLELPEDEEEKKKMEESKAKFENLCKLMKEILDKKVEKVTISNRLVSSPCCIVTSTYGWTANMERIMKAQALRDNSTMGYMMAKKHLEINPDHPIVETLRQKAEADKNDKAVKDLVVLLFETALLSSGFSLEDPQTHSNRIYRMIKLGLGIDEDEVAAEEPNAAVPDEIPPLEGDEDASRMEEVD

Question: For MADIIARLREDGIQKRVIQEGRGELPDFQDGTKATFHYRTLHSDDEGTVLDDSRARGKPMELIIGKKFKLPVWETIVCTMREGEIAQFLCDIKHVVLYPLVAKSLRNIAVGKDPLEGQRHCCGVAQMREHSSLGHADLDALQQNPQPLIFHMEMLKVESPGTYQQDPWAMTDEEKAKAVPLIHQEGNRLYREGHVKEAAAKYYDAIACLKNLQMKEQPGSPEWIQLDQQITPLLLNYCQCKLVVEEYYEVLDHCSSILNKYDDNVAAYFKRGKAHAAVWNAQEAQADFAKVLELDPALAPVVSRELRALEARIRQKDEEDKARFRGIFSH [K266A], which “effect of a mutation on the interaction” value is on record?
Answer: disrupting interaction

Question: For MADIIARLREDGIQKRVIQEGRGELPDFQDGTKATFHYRTLHSDDEGTVLDDSRARGKPMELIIGKKFKLPVWETIVCTMREGEIAQFLCDIKHVVLYPLVAKSLRNIAVGKDPLEGQRHCCGVAQMREHSSLGHADLDALQQNPQPLIFHMEMLKVESPGTYQQDPWAMTDEEKAKAVPLIHQEGNRLYREGHVKEAAAKYYDAIACLKNLQMKEQPGSPEWIQLDQQITPLLLNYCQCKLVVEEYYEVLDHCSSILNKYDDNVKAYFKAGKAHAAVWNAQEAQADFAKVLELDPALAPVVSRELRALEARIRQKDEEDKARFRGIFSH [R271A], which “effect of a mutation on the interaction” value is on record?
Answer: disrupting interaction

— IntAct's records for PubMed 19375531
